{"source": "patent US6537804B1", "about": "“BCR-ABL directed compositions and uses for inhibiting Philadelphia chromesome stimulated cell growth” (Board of Regents, The University of Texas Systems, priority 1995, dated 2003)", "key": {"[1]": {"biological_target": "SH2 domain of Grb2 (Homo sapiens, UniProt P62993)", "sequence (P62993 whole entry, the tested form may be a part)": "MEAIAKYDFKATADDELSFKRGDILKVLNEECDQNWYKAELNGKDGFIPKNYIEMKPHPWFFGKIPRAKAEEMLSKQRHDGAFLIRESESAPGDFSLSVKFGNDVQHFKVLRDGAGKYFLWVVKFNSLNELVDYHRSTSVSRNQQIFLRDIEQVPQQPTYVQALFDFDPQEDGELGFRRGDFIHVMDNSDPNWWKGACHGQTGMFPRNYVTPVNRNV", "assay": "Binding of Bcr peptide to Grb2", "settings": "tyrosine 177 phosphorylated peptide"}, "[2]": {"biological_target": "T1, amino terminal SH2 domain of Ras Gap (Homo sapiens, UniProt P20936)", "T1 construct": "the amino terminal SH2 domain of Ras Gap was expressed as a fusion protein containing the glutathione S transferase protein (GST); made in house", "T1 sequence (P20936 181-272 limits assumed)": "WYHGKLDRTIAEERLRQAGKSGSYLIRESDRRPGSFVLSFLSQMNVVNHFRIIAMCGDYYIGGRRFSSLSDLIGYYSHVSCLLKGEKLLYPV", "assay": "Binding of phosphotyrosine tryptic peptides of Bcr-Abl to GST-Gap SH2", "settings": "phosphotyrosine tryptic peptides of p210 Bcr-Abl; no binding to GST", "description": "The inventors have conducted studies in which the amino terminal SH2 domain of Ras Gap was expressed as a fusion protein containing the glutathione S transferase protein (GST). These studies involve mixing GST-Gap SH2 with phosphotyrosine tryptic peptides of Bcr-Abl."}, "[3]": {"biological_target": "T2, c-Abl SH2 (Mus musculus, UniProt P00520)", "T2 construct": "The inventors performed similar studies with the SH2 domain of Abl; made in house", "T2 sequence (P00520 127-217 limits assumed)": "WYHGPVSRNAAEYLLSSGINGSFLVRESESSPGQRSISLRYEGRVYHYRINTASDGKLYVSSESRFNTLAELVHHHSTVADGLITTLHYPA", "assay": "Binding of phosphotyrosine tryptic peptides of Bcr-Abl to GST-Abl SH2", "settings": "phosphotyrosine tryptic peptides of p210 Bcr-Abl; no binding to GST", "description": "FIG. 10A and FIG. 10B show an absorbed tryptic map of p210. GST-Abl SH2 binds phosphotyrosine tryptic peptide 3, which contains tyrosine 283. p210 Bcr-Abl labeled in the in vitro kinase assay from K562 cells was purified on SDS gels, digested with trypsin and the digest was split in two parts. One was absorbed with GST (FIG. 10A) and the other with GST-Abl SH2 (FIG. 10B). […] The dashed circles identify peptides lacking in the GST-Abl SH2 absorbed fractions.\nThe inventors performed similar studies with the SH2 domain of Abl. These were performed with a mouse c-Abl SH2 sequence, which differs by only two amino acids from the human sequence within the SH2 domain."}, "[4]": {"test_system": "simian Grb2 protein", "assay": "Co-immunoprecipitation of Grb2 with p160 BCR from COS1 cells, anti-Grb2 Western blotting", "type": "binding", "settings": "COS1 cells coexpressing p145 c-ABL(1b)", "description": "Anti-Grb2 Western blotting was performed on anti-BCR (1256-1271) antibody immunoprecipitates of lysates from COS1 cells cotransfected p145 c-ABL with either wild type p160 BCR (lanes 1 and 2) or p160 BCR (F177) (lanes 3 and 4) mutant. Lanes 2 and 4 are immunoprecipitation with pre-blocked anti-BCR (1256-1271) antibody. COS1 cells express an endogenous simian Grb2 protein detected by Western blotting (FIG. 18, lane 1). P160 BCR and p145 c-ABL(1b) were separately or simultaneously expressed in COS1 cells. Two days after transfection, cells were harvested. The cell lysates were clarified by ultracentrifugation and the supernatants were incubated with either anti-BCR c-terminal (1256-1271) antibody (FIG. 18, lanes 2, 4 and 6) or peptide preblocked antibody (FIG. 18, lanes 3, 5 and 7). The immunoprecipitated proteins were then fractionated by a 10% polyacrylamide SDS PAGE and then transferred to a p-immoblin membrane. The membrane was then blotted by an anti-Grb2 antibody (FIG. 18). In this study, p145 c-ABL was coexpressed with either wild type p160 BCR or the mutant p160 BCR(F177) in COS1 cells. Cell lysates were subjected to immunoprecipitation by anti-BCR C-terminal (1256-1271) antibody and the immunoprecipitates were analyzed by Western blotting with an anti-Grb2 antibody."}}, "note": "Non-standard residues stand in square brackets, D forms with d. No end group written: not given here. pY = N[C@@H](Cc1ccc(OP(=O)(O)O)cc1)C(=O)O", "data": [{"molecule": "GHGQPGADAEKPFpY^177VNVE (GHGQPGADAEKPF[pY]VNVE) [Bcr Peptide 164-181]", "values": [{"measurement": "Binding to the SH2 binding site on Grb2", "setting": "[1]", "value": "binds"}, {"measurement": "Binding to the SH2 binding site on Grb2", "setting": "[1]; listed as SEQ ID NO:8", "value": "strongly binds"}]}, {"molecule": "FLKDNLIDANGGSRPPWPPLEYQPYQSIYVGGMMEGEGK (also: phosphotyrosine, position not given here) [#3, phosphotyrosine tryptic peptide 3 of p210 Bcr-Abl]", "values": [{"measurement": "Binding to GST-Ras Gap SH2 fusion protein", "setting": "[2]", "value": "specifically bound"}, {"measurement": "Binding to GST-Abl SH2", "setting": "[3]", "value": "bind"}]}, {"molecule": "NSLETLLYK (NSLETLL[pY]K) [#8, phosphotyrosine tryptic peptide 8 of p210 Bcr-Abl, outside of the first exon]", "values": [{"measurement": "Binding to GST-Ras Gap SH2 fusion protein", "setting": "[2]", "value": "specifically bound"}, {"measurement": "Binding to GST-Abl SH2", "setting": "[3]", "value": "bind"}]}, {"molecule": "wild type p160 PCR: wild type full length human p160 BCR tyrosine phosphorylated by p145 c-ABL(1b) (protein) MVDPVGFAEAWKAQFPDSEPPRMELRSVGDIEQELERCKASIRRLEQEVNQERFRMIYLQTLLAKEKKSYDRQRWGFRRAAQAPDGASEPRASASRPQPAPADGADPPPAEEPEARPDGEGSPGKARPGTARRPGAAASGERDDRGPPASVAALRSNFERIRKGHGQPGADAEKPFYVNVEFHHERGLVKVNDKEVSDRISSLGSQAMQMERKKSQHGAGSSVGDASRPPYRGRSSESSCGVDGDYEDAELNPRFLKDNLIDANGGSRPPWPPLEYQPYQSIYVGGMMEGEGKGPLLRSQSTSEQEKRLTWPRRSYSPRSFEDCGGGYTPDCSSNENLTSSEEDFSSGQSSRVSPSPTTYRMFRDKSRSPSQNSQQSFDSSSPPTPQCHKRHRHCPVVVSEATIVGVRKTGQIWPNDGEGAFHGDADGSFGTPPGYGCAADRAEEQRRHQDGLPYIDDSPSSSPHLSSKGRGSRDALVSGALESTKASELDLEKGLEMRKWVLSGILASEETYLSHLEALLLPMKPLKAAATTSQPVLTSQQIETIFFKVPELYEIHKEFYDGLFPRVQQWSHQQRVGDLFQKLASQLGVYRAFVDNYGVAMEMAEKCCQANAQFAEISENLRARSNKDAKDPTTKNSLETLLYKPVDRVTRSTLVLHDLLKHTPASHPDHPLLQDALRISQNFLSSINEEITPRRQSMTVKKGEHRQLLKDSFMVELVEGARKLRHVFLFTDLLLCTKLKKQSGGKTQQYDCKWYIPLTDLSFQMVDELEAVPNIPLVPDEELDALKIKISQIKNDIQREKRANKGSKATERLKKKLSEQESLLLLMSPSMAFRVHSRNGKSYTFLISSDYERAEWRENIREQQKKCFRSFSLTSVELQMLTNSCVKLQTVHSIPLTINKEDDESPGLYGFLNVIVHSATGFKQSSNLYCTLEVDSFGYFVNKAKTRVYRDTAEPNWNEEFEIELEGSQTLRILCYEKCYNKTKIPKEDGESTDRLMGKGQVQLDPQALQDRDWQRTVIAMNGIEVKLSVKFNSREFSLKRMPSRKQTGVFGVKIAVVTKRERSKVPYIVRQCVEEIERRGMEEVGIYRVSGVATDIQALKAAFDVNNKDVSVMMSEMDVNAIAGTLKLYFRELPEPLFTDEFYPNFAEGIALSDPVAKESCMLNLLLSLPEANLLTFLFLLDHLKRVAEKEAVNKMSLHNLATVFGPTLLRPSEKESKLPANPSQPITMTDSWSLEVMSQVQVLLYFLQLEAIPAPDSKRQSILFSTEV", "values": [{"measurement": "Co-immunoprecipitation of simian Grb2 protein by anti-BCR C-terminal (1256-1271) antibody", "setting": "[4]", "value": "bind specifically"}]}, {"molecule": "p160 BCR lacking tyrosine 177: tyrosine 177 to phenylalanine mutant of p160 BCR (protein) MVDPVGFAEAWKAQFPDSEPPRMELRSVGDIEQELERCKASIRRLEQEVNQERFRMIYLQTLLAKEKKSYDRQRWGFRRAAQAPDGASEPRASASRPQPAPADGADPPPAEEPEARPDGEGSPGKARPGTARRPGAAASGERDDRGPPASVAALRSNFERIRKGHGQPGADAEKPFFVNVEFHHERGLVKVNDKEVSDRISSLGSQAMQMERKKSQHGAGSSVGDASRPPYRGRSSESSCGVDGDYEDAELNPRFLKDNLIDANGGSRPPWPPLEYQPYQSIYVGGMMEGEGKGPLLRSQSTSEQEKRLTWPRRSYSPRSFEDCGGGYTPDCSSNENLTSSEEDFSSGQSSRVSPSPTTYRMFRDKSRSPSQNSQQSFDSSSPPTPQCHKRHRHCPVVVSEATIVGVRKTGQIWPNDGEGAFHGDADGSFGTPPGYGCAADRAEEQRRHQDGLPYIDDSPSSSPHLSSKGRGSRDALVSGALESTKASELDLEKGLEMRKWVLSGILASEETYLSHLEALLLPMKPLKAAATTSQPVLTSQQIETIFFKVPELYEIHKEFYDGLFPRVQQWSHQQRVGDLFQKLASQLGVYRAFVDNYGVAMEMAEKCCQANAQFAEISENLRARSNKDAKDPTTKNSLETLLYKPVDRVTRSTLVLHDLLKHTPASHPDHPLLQDALRISQNFLSSINEEITPRRQSMTVKKGEHRQLLKDSFMVELVEGARKLRHVFLFTDLLLCTKLKKQSGGKTQQYDCKWYIPLTDLSFQMVDELEAVPNIPLVPDEELDALKIKISQIKNDIQREKRANKGSKATERLKKKLSEQESLLLLMSPSMAFRVHSRNGKSYTFLISSDYERAEWRENIREQQKKCFRSFSLTSVELQMLTNSCVKLQTVHSIPLTINKEDDESPGLYGFLNVIVHSATGFKQSSNLYCTLEVDSFGYFVNKAKTRVYRDTAEPNWNEEFEIELEGSQTLRILCYEKCYNKTKIPKEDGESTDRLMGKGQVQLDPQALQDRDWQRTVIAMNGIEVKLSVKFNSREFSLKRMPSRKQTGVFGVKIAVVTKRERSKVPYIVRQCVEEIERRGMEEVGIYRVSGVATDIQALKAAFDVNNKDVSVMMSEMDVNAIAGTLKLYFRELPEPLFTDEFYPNFAEGIALSDPVAKESCMLNLLLSLPEANLLTFLFLLDHLKRVAEKEAVNKMSLHNLATVFGPTLLRPSEKESKLPANPSQPITMTDSWSLEVMSQVQVLLYFLQLEAIPAPDSKRQSILFSTEV", "values": [{"measurement": "Co-immunoprecipitation of simian Grb2 protein by anti-BCR C-terminal (1256-1271) antibody", "setting": "[4]", "value": "much reduced level"}]}]}
